According to patent publication US7504384B2 (priority 2000, dated 2009):
Values joined by “and” are separate entries in the source; they are usually repeats but may differ in a detail not shown here. Identical values can stand only once.

Legend:
mice = test: Long-term (30 weeks) toxicity test; type: in vivo
Experimental: For the long-term toxicity test a group of 6 mice received an i.p injection of 100 mg Lipid-conjugate (Compound XXII)/kg body weight 3 times a week for 30 weeks (e.g., 180 mg total to a mouse weighing 20 g). Toxicity was evaluated as for Table 8.1. The results of the long-term toxicity test are depicted in Table 8.2.

[1] = system: Influenza A (H3N2 strain) virus; type: cell-based, Influenza type A, A/Panama/2007/99 (H3N2); conditions: high concentration, Neutral Red Uptake Assay
[2] = system: Influenza A (H1N1 strain) virus; type: cell-based, Influenza type A, A/New Caledonia/20/99 (H1N1)
[3] = 100 mg/kg i.p. 3 times/week for 30 weeks

| Substance | mortality (mice; 100 mg/kg i.p. 3 times a week for 30 weeks) | changes in body weight, red or white blood cell count, or hematocrit (mice; 100 mg/kg i.p. 3 times a week for 30 weeks, compared to control, untreated mice) | Body weight (g) Final (mice; [3]) [g] | Hematocrit % (mice; [3]) [%] | RBC × 10^6 (mice; [3]) | WBC × 10^3 (mice; [3]) | EC50 [1] [µg/mL] | SI (IC50/EC50) [2] | EC50 ([2]; high concentration, Visual Observation Assay, Influenza A (H1N1 strain)) [µg/mL] |
| --- | --- | --- | --- | --- | --- | --- | --- | --- | --- |
| dipalmitoyl-PE conjugated to HA [Compound XXII] | no incidents of mortality | no significant changes | 39.0 ± 2.7 | 43.4 ± 4.9 | 11.7 ± 0.7 × 10^6 | 8.1 ± 15 × 10^3 | – | – | – |
| dipalmitoyl-phosphatidyl-ethanolamine conjugated to heparin [Compound XXIV] | – | – | – | – | – | – | 900 | 20 and 11 | 400 |
